Reference: paper PMC4357698

Legend:
[1] = target: 40S ribosomal subunit (UniProt P62841); experiment: co-sedimentation
[2] = target: 43S preinitiation complex reconstituted from purified components (UniProt P62841); experiment: co-sedimentation

## human SRP9/14 protein dimer (from UniProt P49458 1-86; P37108 1-136) (complex)
[1]
  share of h9/14 comigrating with the subunit (fraction of h9/14): 0.33
  stoichiometry N (binding sites on 40S): > 1
[2]
  fold reduction of bound SRP9/14 against the scAluY^A RNP sample: 3 fold
  percent of SRP9/14 comigrating with the complex: 15%
